Experimental data as given in US20250052768A1 (UNIVERSIT T HEIDELBERG, published 2025).

How the values were obtained:
[1] = target: T1, DLL1 antigen (recombinant DLL1 protein) (human, UniProt O00548 18-540, limits assumed); test: sandwich ELISA, capture AbD33905, detection AbD33905-HRP, DLL1 2 ug/ml
T1 construct: also called Delta-like 1
T1 sequence (looked up): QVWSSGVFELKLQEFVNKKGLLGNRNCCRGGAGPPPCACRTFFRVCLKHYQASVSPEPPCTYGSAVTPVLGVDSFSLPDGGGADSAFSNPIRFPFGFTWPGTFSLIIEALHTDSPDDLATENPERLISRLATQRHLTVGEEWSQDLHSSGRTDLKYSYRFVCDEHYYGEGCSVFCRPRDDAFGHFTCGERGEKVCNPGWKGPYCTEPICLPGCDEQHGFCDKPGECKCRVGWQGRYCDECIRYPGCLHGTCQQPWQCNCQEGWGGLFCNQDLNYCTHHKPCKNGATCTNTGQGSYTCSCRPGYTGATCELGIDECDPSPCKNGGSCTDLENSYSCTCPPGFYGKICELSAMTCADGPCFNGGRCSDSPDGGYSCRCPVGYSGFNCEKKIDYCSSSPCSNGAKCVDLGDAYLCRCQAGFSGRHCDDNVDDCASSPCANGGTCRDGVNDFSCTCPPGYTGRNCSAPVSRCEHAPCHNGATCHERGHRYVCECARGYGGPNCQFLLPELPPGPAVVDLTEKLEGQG
Method: (§1) As control coating a-Fd (Bio-Rad antibodies, STAR126) at 5 μg/ml in PBS was used. Per well a volume of 20 μl coating solution was used. The Polystyrene ELISA plates were then incubated overnight at 4° C. with a closed lid. […] Subsequently, blocking of non-specific binding sites was performed with 100 μl per well of PBST containing 5% (w/v) BSA (Sigma-Aldrich, A7906-100). This blocking step was conducted at RT for 1-2 h. After removal of the blocking solution, five washes with PBST were performed. Thereafter, 2 μg/ml DLL1 antigen in PBST were added or PBST only (20 μl per well, triplicates were prepared). Incubation with the DLL1 antigen solution or PBST was performed at RT for 1 h. Next, the DLL1 antigen solution or PBST were removed and five washes with PBST were performed. […] After removal of this solution, ten washes with PBST were performed. […] For detection in the ELISA reader (Tecan Infinite M1000Pro Reader, Tecan Austria GmbH) excitation was performed at 320±25 nm and emission was detected at 430±35 nm.

[2] = target: T1, DLL1 antigen (recombinant DLL1 protein); test: sandwich ELISA, capture AbD33905, detection AbD33906-HRP, DLL1 2 ug/ml
Method: as §1

[3] = target: T1, DLL1 antigen (recombinant DLL1 protein); test: sandwich ELISA, capture AbD33906, detection AbD33905-HRP, DLL1 2 ug/ml
Method: as §1

[4] = target: T1, DLL1 antigen (recombinant DLL1 protein); test: sandwich ELISA, capture AbD33906, detection AbD33906-HRP, DLL1 2 ug/ml
Method: as §1

[5] = target: GST; test: ELISA on antigen coated at 5 ug/ml, anti-Strep-HRP secondary antibody
Method: (§2) The binding specificity of AbD33905 in form of a bivalent Fab fragment fused to alkaline phosphatase followed by a FLAG®-tag and Twin-Strep®-tag was tested in the following ELISA:
(§3) Per well a volume of 20 μl coating solution was used. The Polystyrene ELISA plates were then incubated overnight at 4° C. with a closed lid. […] Subsequently, blocking of non-specific binding sites was performed with 100 μl per well of PBST containing 5% (w/v) non-fat dry milk. This blocking step was conducted at RT for 1-2 h. After removal of the blocking solution, five washes with PBST were performed. Thereafter, AbD33905 in form of a bivalent Fab fragment fused to alkaline phosphatase followed by a FLAG®-tag and Twin-Strep®-tag in PBST was added (20 μl per well). Incubation with this AbD33905 Fab fragment was performed at RT for 1 h. Next, the AbD33905 Fab fragment containing solution was removed and five washes with PBST were performed. Thereafter 20 μl/well of 2 μg/ml anti-Strep-HRP secondary antibody (Bio-Rad antibodies, MCA2489P, 1:5000) in HISPEC assay diluent (Bio-Rad Antibodies, BUF049) were added and incubated at RT for 1 h. After removal of this solution, ten washes with PBST were performed. […] For detection in the ELISA reader (Tecan Infinite M1000Pro Reader, Tecan Austria GmbH) excitation was performed at 320±25 nm and emission was detected at 430±35 nm.

[6] = target: bovine serum albumin (BSA) (bovine, UniProt P02769 25-607); test: as above
Method: as §2, §3

[7] = target: N1-CD33-His6; test: as above
Method: as §2, §3

[8] = target: T1, DLL1 antigen (recombinant DLL1 protein); test: as above
Method: as §2, §3

Chain of GST (P08515 2-218): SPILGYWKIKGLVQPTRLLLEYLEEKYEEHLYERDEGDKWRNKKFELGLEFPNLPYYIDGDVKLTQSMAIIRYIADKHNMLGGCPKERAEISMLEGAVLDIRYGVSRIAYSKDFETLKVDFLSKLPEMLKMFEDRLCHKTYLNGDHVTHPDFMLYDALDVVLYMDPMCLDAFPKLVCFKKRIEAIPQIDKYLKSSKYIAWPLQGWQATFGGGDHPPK
Chain of bovine serum albumin (BSA) (P02769 25-607 limits assumed): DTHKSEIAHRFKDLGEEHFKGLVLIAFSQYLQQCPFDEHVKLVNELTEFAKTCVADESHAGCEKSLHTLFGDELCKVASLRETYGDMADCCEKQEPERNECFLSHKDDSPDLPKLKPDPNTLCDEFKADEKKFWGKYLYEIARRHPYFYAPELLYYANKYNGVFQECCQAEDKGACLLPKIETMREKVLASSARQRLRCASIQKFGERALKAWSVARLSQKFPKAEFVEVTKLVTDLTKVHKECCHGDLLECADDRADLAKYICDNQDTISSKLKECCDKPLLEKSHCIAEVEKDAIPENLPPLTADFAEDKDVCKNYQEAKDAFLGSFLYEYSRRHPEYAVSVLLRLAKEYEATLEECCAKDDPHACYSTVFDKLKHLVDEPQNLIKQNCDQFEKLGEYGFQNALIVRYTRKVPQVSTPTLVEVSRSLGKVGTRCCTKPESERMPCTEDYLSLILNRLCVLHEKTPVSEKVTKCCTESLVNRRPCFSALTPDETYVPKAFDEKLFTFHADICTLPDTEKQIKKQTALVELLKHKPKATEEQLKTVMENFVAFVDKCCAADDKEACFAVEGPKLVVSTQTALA

B1: AbD33905 (Fab fragment, monovalent) (Fab, V domains shown)
VH: EVQLLESGGGLVQPGGSLRLSCAASGFTFSSYAMHWVRQAPGKGLEWVSFISSGGSTTYYADSVKGRFTISRDNSKNTLYLQMNSLRAEDTAVYYCARFRSGYFDYWGQGTLVTVSS
VL: DIVMTQSPLSLPVTPGEPASISCRSSQSLVHSNGADYLNWYLQKPGQSPQLLIYKGSNRDSGVPDRFSGSGSGTDFTLKISRVEAEDVGVYYCQQGYDFPPFTFGQGTKVEIKR
notes: Monovalent Fab; also called Ab33905; monovalent AbD33905
With B1 the “emission value DLL1 antigen/emission value PBST” value [1] was 8 ratio and the “emission value DLL1 antigen/emission value PBST” value [2] was 66 ratio.

B2: AbD33906 (Fab fragment, monovalent) (Fab, V domains shown)
VH: QVQLVQSGAEVKKPGSSVKVSCKASGGTFSSYAISWVRQAPGQGLEWMGGIIPQFGIANYAQKFQGRVTITADESTSTAYMELSSLRSEDTAVYYCAREGYSDYSAFDYWGQGTLVTVSS
VL: DIALTQPASVSGSPGQSITISCTGTSSDVGTYNYVNWYQQHPGKAPKVMIYRVSNRPSGVSNRFSGSKSGNTASLTISGLQAEDEADYYCSSWDEHSYVFGGGTKLTVLG
notes: also called AbD33906 Fab fragments
In the case of B2, the “emission value DLL1 antigen/emission value PBST” value [3] is reported as 132 ratio and the “emission value DLL1 antigen/emission value PBST” value [4] is reported as 7 ratio.

B3: AbD33905 in form of a bivalent Fab fragment fused to alkaline phosphatase followed by a FLAG-tag and Twin-Strep-tag (Fab, V domains shown)
VH: EVQLLESGGGLVQPGGSLRLSCAASGFTFSSYAMHWVRQAPGKGLEWVSFISSGGSTTYYADSVKGRFTISRDNSKNTLYLQMNSLRAEDTAVYYCARFRSGYFDYWGQGTLVTVSS
VL: DIVMTQSPLSLPVTPGEPASISCRSSQSLVHSNGADYLNWYLQKPGQSPQLLIYKGSNRDSGVPDRFSGSGSGTDFTLKISRVEAEDVGVYYCQQGYDFPPFTFGQGTKVEIKR
notes: it is put on the heavy chain here; also called AbD33905 bivalent Fab fragment; not shown: alkaline phosphatase, then FLAG-tag and Twin-Strep-tag
For B3, the Emission data [5] was 70 arbitrary units, the Emission data [6] was 71 arbitrary units and the Emission data [7] was 46 arbitrary units. For the same binder, the Emission data [8] was 15500 arbitrary units.
